Consider seven variants from FireProtDB (doi:10.1021/bi100877y).

One may read the Tm as the temperature at which the thermal transition is half complete.

Values joined by “and” are separate entries in the source; they are usually repeats but may differ in a detail not shown here. Equal values may be shown once.

First the molecules themselves.
B1: Outer membrane porin C, P06996 (parent)
chain: MKVKVLSLLVPALLVAGAANAAEVYNKDGNKLDLYGKVDGLHYFSDNKDVDGDQTYMRLGFKGETQVTDQLTGYGQWEYQIQGNSAENENNSWTRVAFAGLKFQDVGSFDYGRNYGVVYDVTSWTDVLPEFGGDTYGSDNFMQQRGNGFATYRNTDFFGLVDGLNFAVQYQGKNGNPSGEGFTSGVTNNGRDALRQNGDGVGGSITYDYEGFGIGGAISSSKRTDAQNTAAYIGNGDRAETYTGGLKYDANNIYLAAQYTQTYNATRVGSLGWANKAQNFEAVAQYQFDFGLRPSLAYLQSKGKNLGRGYDDEDILKYVDVGATYYFNKNMSTYVDYKINLLDDNQFTRDAGINTDNIVALGLVYQF

In this data set the parent is B1. The following applies: Escherichia coli (strain K12), pH 7, Thermal, phosphate 50 mM, structure 2J1N, whole UniProt chain shown.

As to MKVKVLSLLVPALLVAGAANAAEVYNKDGNKLDLYGKVDGLHYFSDNKDVDGDQTYMRLGFKGETQVTDQLTGYGQWEYQIQGNSAENENNSWTSVAFAGLKFQDVGSFDYGRNYGVVYDVTSWTDVLPEFGGDTYGSDNFMQQRGNGFATYRNTDFFGLVDGLNFAVQYQGKNGNPSGEGFTSGVTNNGRDALRQNGDGVGGSITYDYEGFGIGGAISSSKRTDAQNTAAYIGNGDRAETYTGGLKYDANNIYLAAQYTQTYNATRVGSLGWANKAQNFEAVAQYQFDFGLRPSLAYLQSKGKNLGRGYDDEDILKYVDVGATYYFNKNMSTYVDYKINLLDDNQFTRDAGINTDNIVALGLVYQF [R95S], the “change of melting temperature, mutant - wild type (higher = more stable)” value (shortened to “change of melting temperature, mutant”) (CD) was -1.8 °C and -6.8 °C. Also, under “DSC”, the Tm worked out at 81.7 °C; the “change of melting temperature, mutant” value is -5.26 °C; the “unfolding enthalpy (calorimetric)” value is 299 kcal/mol.

Take MKVKVLSLLVPALLVAGAANAAEVYNKDGNKLDLYGKVDGLHYFSDNKDVDGDQTYMRLGFKGETQVTDQLTGYGQWEYQIQGNSAENENNSWTGVAFAGLKFQDVGSFDYGRNYGVVYDVTSWTDVLPEFGGDTYGSDNFMQQRGNGFATYRNTDFFGLVDGLNFAVQYQGKNGNPSGEGFTSGVTNNGRDALRQNGDGVGGSITYDYEGFGIGGAISSSKRTDAQNTAAYIGNGDRAETYTGGLKYDANNIYLAAQYTQTYNATRVGSLGWANKAQNFEAVAQYQFDFGLRPSLAYLQSKGKNLGRGYDDEDILKYVDVGATYYFNKNMSTYVDYKINLLDDNQFTRDAGINTDNIVALGLVYQF [R95G]: for the setting “CD”, the Tm was 68.1 °C and the “change of melting temperature, mutant” value is -1.8 °C. In addition, under “DSC”, the Tm is 80.8 °C; the “change of melting temperature, mutant” value was -6.19 °C; the “unfolding enthalpy (calorimetric)” value came to 326 kcal/mol.

In the case of MKVKVLSLLVPALLVAGAANAAEVYNKDGNKLDLYGKVDGLHYFSDNKDVDGDQTYMRLGFKGETQVTDQLTGYGQWEYQIQGNSAENENNSWTAVAFAGLKFQDVGSFDYGRNYGVVYDVTSWTDVLPEFGGDTYGSDNFMQQRGNGFATYRNTDFFGLVDGLNFAVQYQGKNGNPSGEGFTSGVTNNGRDALRQNGDGVGGSITYDYEGFGIGGAISSSKRTDAQNTAAYIGNGDRAETYTGGLKYDANNIYLAAQYTQTYNATRVGSLGWANKAQNFEAVAQYQFDFGLRPSLAYLQSKGKNLGRGYDDEDILKYVDVGATYYFNKNMSTYVDYKINLLDDNQFTRDAGINTDNIVALGLVYQF [R95A], under “DSC”, the melting temperature (Tm) was 81.3 °C; the “change of melting temperature, mutant” value is -5.66 °C; the “unfolding enthalpy (calorimetric)” value stood at 258 kcal/mol.

As to MKVKVLSLLVPALLVAGAANAAEVYNKDGNKLDLYGKVDGLHYFSDNKDVDGDQTYMRLGFKGETQVTDQLTGYGQWEYQIQGNSAENENNSWTCVAFAGLKFQDVGSFDYGRNYGVVYDVTSWTDVLPEFGGDTYGSDNFMQQRGNGFATYRNTDFFGLVDGLNFAVQYQGKNGNPSGEGFTSGVTNNGRDALRQNGDGVGGSITYDYEGFGIGGAISSSKRTDAQNTAAYIGNGDRAETYTGGLKYDANNIYLAAQYTQTYNATRVGSLGWANKAQNFEAVAQYQFDFGLRPSLAYLQSKGKNLGRGYDDEDILKYVDVGATYYFNKNMSTYVDYKINLLDDNQFTRDAGINTDNIVALGLVYQF [R95C], where the note is “CD”, the Tm was 68.4 °C and the “change of melting temperature, mutant” value is -1.5 °C. Where the note is “DSC”, the Tm came to 84.6 °C; the “change of melting temperature, mutant” value was -2.35 °C; the “unfolding enthalpy (calorimetric)” value was 297 kcal/mol.

Take MKVKVLSLLVPALLVAGAANAAEVYNKDGNKLDLYGKVDGLHYFSDNKDVDGDQTYMRLGFKGETQVTDQLTGYGQWEYQIQGNSAENENNSWTRVAFAGLKFQDVGSFDYGRNYGVVYDVTSWTGVLPEFGGDTYGSDNFMQQRGNGFATYRNTDFFGLVDGLNFAVQYQGKNGNPSGEGFTSGVTNNGRDALRQNGDGVGGSITYDYEGFGIGGAISSSKRTDAQNTAAYIGNGDRAETYTGGLKYDANNIYLAAQYTQTYNATRVGSLGWANKAQNFEAVAQYQFDFGLRPSLAYLQSKGKNLGRGYDDEDILKYVDVGATYYFNKNMSTYVDYKINLLDDNQFTRDAGINTDNIVALGLVYQF [D126G]: for the setting “DSC”, the Tm was determined as 81.5 °C; the “change of melting temperature, mutant” value was -5.44 °C; the “unfolding enthalpy (calorimetric)” value amounted to 304 kcal/mol.

In the case of MKVKVLSLLVPALLVAGAANAAEVYNKDGNKLDLYGKVDGLHYFSDNKDVDGDQTYMHLGFKGETQVTDQLTGYGQWEYQIQGNSAENENNSWTRVAFAGLKFQDVGSFDYGRNYGVVYDVTSWTDVLPEFGGDTYGSDNFMQQRGNGFATYRNTDFFGLVDGLNFAVQYQGKNGNPSGEGFTSGVTNNGRDALRQNGDGVGGSITYDYEGFGIGGAISSSKRTDAQNTAAYIGNGDRAETYTGGLKYDANNIYLAAQYTQTYNATRVGSLGWANKAQNFEAVAQYQFDFGLRPSLAYLQSKGKNLGRGYDDEDILKYVDVGATYYFNKNMSTYVDYKINLLDDNQFTRDAGINTDNIVALGLVYQF [R58H], the “change of melting temperature, mutant” value (CD) is -1.5 °C and -1.1 °C and -2 °C. For the same variant, under “DSC”, the midpoint of thermal melting (Tm) turned out to be 87.3 °C; the “change of melting temperature, mutant” value stood at 0.31 °C; the “unfolding enthalpy (calorimetric)” value was 359 kcal/mol.

Turning to MKVKVLSLLVPALLVAGAANAAEVYNKDGNKLDLYGKVDGLHYFSDNKDVDGDQTYMRLGFKGETQVTDQLTGYGQWEYQIQGNSAENENNSWTAVAFAGLKFQDVGSFDYGRNYGVVYDVTSWTGVLPEFGGDTYGSDNFMQQRGNGFATYRNTDFFGLVDGLNFAVQYQGKNGNPSGEGFTSGVTNNGRDALRQNGDGVGGSITYDYEGFGIGGAISSSKRTDAQNTAAYIGNGDRAETYTGGLKYDANNIYLAAQYTQTYNATRVGSLGWANKAQNFEAVAQYQFDFGLRPSLAYLQSKGKNLGRGYDDEDILKYVDVGATYYFNKNMSTYVDYKINLLDDNQFTRDAGINTDNIVALGLVYQF [R95A D126G], for the setting “DSC”, the midpoint of thermal melting (Tm) was 73.9 °C; the “change of melting temperature, mutant” value is -13 °C; the “unfolding enthalpy (calorimetric)” value was determined as 192 kcal/mol.
